Measurements: paper PMC9633730, “Endowing homodimeric carbamoyltransferase GdmN with iterative functions through structural characterization and mechanistic studies” (Nature Communications, 2022)

Legend:
[1] = target: GdmN (Streptomyces hygroscopicus XM201); test: SEC; Superdex 200 Increase 10/300 GL, buffer C (10 mM Tris, 150 mM NaCl, pH 8.0), calibrated with Bio-Rad gel filtration standards; monomer to dimer
[2] = target: T1, GdmN (Streptomyces hygroscopicus, UniProt Q84G19, V24Y/G157A/R158A/G188R); test: X-ray co-crystal structure; format: binding; settings: reaction intermediate formed from ATP, MgCl2 and carbamoyl phosphate; carbamoyl group rotated
T1 construct: homodimer; Kae1-like M1-L351, YrdC-like G368-A571, dimerization domain D574-L674; one iron ion per monomer
T1 sequence (Q84G19 entry or part of it V24Y/G157A/R158A/G188R): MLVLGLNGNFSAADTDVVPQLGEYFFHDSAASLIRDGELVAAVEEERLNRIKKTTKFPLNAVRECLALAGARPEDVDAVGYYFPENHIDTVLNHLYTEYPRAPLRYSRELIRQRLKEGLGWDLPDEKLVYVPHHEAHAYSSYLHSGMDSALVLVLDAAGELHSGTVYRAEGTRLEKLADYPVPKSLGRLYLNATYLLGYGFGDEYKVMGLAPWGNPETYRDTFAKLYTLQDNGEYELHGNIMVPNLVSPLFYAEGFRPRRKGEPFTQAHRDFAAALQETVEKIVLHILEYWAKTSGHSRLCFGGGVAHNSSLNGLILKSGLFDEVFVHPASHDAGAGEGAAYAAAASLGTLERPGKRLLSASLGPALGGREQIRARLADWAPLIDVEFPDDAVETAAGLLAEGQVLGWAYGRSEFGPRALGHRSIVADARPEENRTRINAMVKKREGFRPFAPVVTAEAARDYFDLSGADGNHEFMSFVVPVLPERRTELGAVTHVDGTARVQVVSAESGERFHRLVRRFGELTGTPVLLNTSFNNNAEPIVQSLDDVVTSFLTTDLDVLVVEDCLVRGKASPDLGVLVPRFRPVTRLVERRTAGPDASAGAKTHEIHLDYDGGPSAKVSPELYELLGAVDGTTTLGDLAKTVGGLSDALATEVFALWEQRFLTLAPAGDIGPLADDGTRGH

**Q.** Which stoichiometry N [1] does the source give for GdmN (enzyme) here?
**A.** 2

**Q.** For `NC(=O)OP(=O)(O)OC[C@H]1O[C@@H](n2cnc3c(N)ncnc32)[C@H](O)[C@@H]1O` [carbamoyl-AMP], which X-ray co-crystal structure [2] is on record?
**A.** complex of GdmN V24Y/G157A/R158A/G188R mutant with carbamoyl-AMP (PDB: 7VZQ)
